Results published in US11306156.

Key:
[1] = biological target: tissue factor (TF) antigen (UniProt P13726); test: SPR, Fab captured on anti-penta-His, TF as analyte, 1:1 fit
[2] = biological target: tissue factor (TF) antigen (UniProt P13726); test: vs wild-type D3H44 Fab (KD 0.157 nM); SPR, Fab captured on anti-penta-His, TF as analyte
[3] = biological target: tissue factor (TF) antigen (UniProt P13726); test: SPR, against wild-type D3H44 Fab; batch C (+)
[4] = biological target: tissue factor (TF) antigen (UniProt P13726); test: SPR (ProteOn XPR36), Fab captured on anti-penta-His, TF injected, 1:1 fit; batch C (+)
[5] = biological target: tissue factor (TF) antigen (UniProt P13726); test: SPR (ProteOn XPR36), His-tagged Fab captured on anti-penta His, TF as analyte; against wild-type D3H44 Fab
[6] = biological target: tissue factor (TF) antigen (UniProt P13726); test: SPR (ProteOn XPR36), His-tagged Fab captured on anti-penta His, TF as analyte, 1:1 fit
[7] = biological target: tissue factor (TF) antigen (UniProt P13726); test: SPR, Fab captured on anti-penta-His surface, TF as analyte, 1:1 fit; Fab batch C
[8] = biological target: tissue factor (TF) antigen (UniProt P13726); test: SPR, Fab captured on anti-penta-His surface, TF as analyte, 1:1 fit; Fab batch C; against wild-type D3H44 Fab
[9] = biological target: tissue factor (TF) antigen (UniProt P13726); test: SPR (ProteOn XPR36): Fab captured via His tag on anti-penta-His, TF as analyte, 1:1 fit; estimated value, taken from the same Fab with another L chain tag
[10] = biological target: tissue factor (TF) antigen (UniProt P13726); test: SPR; log ratio against wild-type D3H44 Fab; estimated value
[11] = biological target: tissue factor (TF) antigen (UniProt P13726); test: SPR (ProteOn XPR36): Fab captured via His tag on anti-penta-His, TF as analyte, 1:1 fit
[12] = biological target: tissue factor (TF) antigen (UniProt P13726); test: SPR; log ratio against wild-type D3H44 Fab
[13] = biological target: tissue factor (TF) antigen (UniProt P13726); test: SPR (ProteOn XPR36), Fab captured by His tag on anti-penta-His surface, TF injected as analyte, 1:1 fit
[14] = biological target: tissue factor (TF) antigen (UniProt P13726); test: SPR (ProteOn XPR36), Fab captured by His tag on anti-penta-His surface, TF injected as analyte; against wild-type D3H44 Fab

Sequence of tissue factor (TF) antigen (P13726 33-251 limits assumed): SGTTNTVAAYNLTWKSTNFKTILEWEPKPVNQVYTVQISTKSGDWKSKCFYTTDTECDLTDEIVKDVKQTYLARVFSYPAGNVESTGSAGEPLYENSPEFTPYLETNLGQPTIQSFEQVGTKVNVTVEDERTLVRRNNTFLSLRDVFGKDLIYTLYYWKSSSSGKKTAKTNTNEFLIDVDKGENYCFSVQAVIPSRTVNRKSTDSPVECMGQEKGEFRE

With “H1L1 Fab heterodimer of LCCA sets 9667, 9671, 9675, 9679 and 9682 (D3H44 Fab, H1 L143E_K145T_Q179E, L1 Q124R_T178R)” the Kd [1] was 0.27 nM and the change in median KD compared to wild type, -(log(KD design)-log(KD wt)) [2] was -0.23.

Substance “H1L1 Fab heterodimer of LCCA Set # 9843 and 9844 (D3H44 Fab; H1 S186K, L1 Q124E_S131T_T178F_T180E)” has a Change in median values of KD of h1l1 Fab heterodimer compared to wild type (-(log(KD design)-log(KD wt))) [3] of -0.03 and a Kd [4] of 0.17 nM.

Work on “D3H44 Fab heterodimer, H1 L124R_S186R / L1 Q124E_V133G_S176D_T178D_T180E (H1L1 Fab of LCCA Set # 9513)” yielded a Change in median values of KD of h1|1 Fab heterodimer compared to wild type (-(log(KD design)-log(KD wt))) [5] of -0.21 and a Kd [6] of 0.26 nM.

In the case of “D3H44 H1L1 Fab heterodimer of LCCA Set # 9901 (H1 S186R; L1 Q124E_T180E)”, the Kd [7] is reported as 0.07 nM and the change in median KD compared to wild type, -(log(KD design)-log(KD wt)) [8] is reported as 0.36.

Work on “D3H44 Fab heterodimer, H L143E_K145T_Q179E / L T178R (H1L1 of LCCA sets 9683 and 9684)” yielded a Kd [9] of 0.3 nM, a Change in KD with respect to wild type (-(log(KD design) - log(KD wt))) [10] of -0.28 and a Kd [11] of 0.3 nM. The Change in KD with respect to wild type (-(log(KD design) - log(KD wt))) [12] was -0.28.

Work on “D3H44 H1L1 Fab heterodimer of LCCA Sets # 6054, 9338 and 9339 (H1 L124R, L1 V133G_S176D_T178D)” yielded a Kd [13] of 0.24 nM and a change in median KD compared to wild type, -(log(KD design)-log(KD wt)) [14] of -0.18 log.

With “H1L1 Fab heterodimer of LCCA Set # 9805 and 9806 (D3H44 Fab; H1 Q179R, L1 Q124E_S131T_T178Y_T180E)” the Change in median values of KD of h1l1 Fab heterodimer compared to wild type (-(log(KD design)-log(KD wt))) [3] was 0.07 and the Kd [4] was 0.13 nM.

With “H1L1 Fab heterodimer of LCCA sets 9757 and 9758 (D3H44 Fab, H1 Q179K, L1 Q124E_Q160E_T178E)” the Kd [1] was 0.29 nM and the change in median KD compared to wild type, -(log(KD design)-log(KD wt)) [2] was -0.27.

Work on “D3H44 H1L1 Fab heterodimer of LCCA Sets # 9486, 9487, 9488 and 9489 (H1 L124R_S186K, L1 V133G_S176D_T178E_T180E)” yielded a Kd [13] of 0.23 nM and a change in median KD compared to wild type, -(log(KD design)-log(KD wt)) [14] of -0.17 log.

“H1L1 Fab heterodimer of LCCA sets 9755 and 9756 (D3H44 Fab, H1 Q179K, L1 Q124E_L135W_Q160E_T180E)” gave a Kd [1] of 0.28 nM and a change in median KD compared to wild type, -(log(KD design)-log(KD wt)) [2] of -0.26.

“D3H44 Fab heterodimer, H L143E_K145T_Q179D / L T178R (H1L1 of LCCA set 9641)” gave a Kd [9] of 0.11 nM and a Change in KD with respect to wild type (-(log(KD design) - log(KD wt))) [10] of 0.17.

For “D3H44 H1L1 Fab heterodimer of LCCA Set # 9122 (H1 L124E_H172T, L1 V133G_S174R_S176R)”, the Kd [13] was 0.13 nM and the change in median KD compared to wild type, -(log(KD design)-log(KD wt)) [14] was 0.1 log.

“D3H44 Fab heterodimer, H L143E_K145T_Q179D / L Q124R_T178R (H1L1 of LCCA sets 9635 and 9632)” was tested, and the Kd [9] was 0.14 nM, the Change in KD with respect to wild type (-(log(KD design) - log(KD wt))) [10] was 0.04 and the Kd [11] was 0.14 nM. The Change in KD with respect to wild type (-(log(KD design) - log(KD wt))) [12] was 0.04.

“D3H44 Fab heterodimer, H L143E_K145T_Q179E / L Q124R_T178K (H1L1 of LCCA set 9657)” showed a Kd [9] of 0.19 nM and a Change in KD with respect to wild type (-(log(KD design) - log(KD wt))) [10] of -0.08.

In the case of “H1L1 Fab heterodimer of LCCA Set # 9781 and 9782 (D3H44 Fab; H1 Q179K, L1 Q124E_S176L_T180E)”, the Change in median values of KD of h1l1 Fab heterodimer compared to wild type (-(log(KD design)-log(KD wt))) [3] is reported as 0.28 and the Kd [4] is reported as 0.08 nM.

With “D3H44 H1L1 Fab heterodimer of LCCA Set # 9809 (H1 Q179R; L1 Q124E_T178E)” the Kd [7] was 0.14 nM and the change in median KD compared to wild type, -(log(KD design)-log(KD wt)) [8] was 0.04.

“H1L1 Fab heterodimer of LCCA set 9746 (D3H44 Fab, H1 L45P_K145T_Q179E, L1 P44F_S131K)” gave a Kd [1] of 0.35 nM and a change in median KD compared to wild type, -(log(KD design)-log(KD wt)) [2] of -0.35.

“D3H44 H1L1 Fab heterodimer of LCCA Set # 9831 (H1 S186K; L1 Q124E_Q160E_T180E)” gave a Kd [7] of 0.13 nM and a change in median KD compared to wild type, -(log(KD design)-log(KD wt)) [8] of 0.09.

For “D3H44 Fab heterodimer, H L143E_K145T_Q179E / L Q124R_T178R (H1L1 of LCCA sets 9679 and 9663)”, the Kd [9] was 0.27 nM, the Change in KD with respect to wild type (-(log(KD design) - log(KD wt))) [10] was -0.23 and the Kd [11] was 0.27 nM. It also gave a Change in KD with respect to wild type (-(log(KD design) - log(KD wt))) [12] of -0.23.
